We go through 18 molecules from patent US20200270339A1 (CEPHALON, published 2020).

For orientation: Kd means the constant that tells how readily two partners part at equilibrium. The term koff denotes the first-order rate constant of dissociation. In general, kon refers to the rate constant with which the complex forms. Read a high kon as faster complex formation.

Assay [1] addresses T1, human IL-15 complexed with the IL-15 Receptor-alpha (human, UniProt P40933 49-162). As to the kind of experiment: cell-based or functional assay.
Target sequence in this assay (P40933 49-162 limits assumed, chain 1 of 2, one chain of several): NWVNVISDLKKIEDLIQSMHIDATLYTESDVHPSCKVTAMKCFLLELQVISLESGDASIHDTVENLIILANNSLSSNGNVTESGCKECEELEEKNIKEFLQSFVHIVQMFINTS
In assay [2] the target is T1, human IL-15 complexed with the IL-15 …. As to the kind of experiment: cell-based or functional assay. The source holds these as a separate data set.
Target sequence in this assay (P40933 49-162 limits assumed, one chain of several): as the sequence (P40933 49-162 limits assumed, chain 1 of 2, one chain of several) above
Assay [3] has the same target. As to the kind of experiment: cell-based or functional assay. This is another data set of the same source.
Target sequence in this assay (P40933 49-162 limits assumed, one chain of several): as the sequence (P40933 49-162 limits assumed, chain 1 of 2, one chain of several) above
The target is the same in assay [4]. The assay can be described thus: SPR. (In general: In SPR one partner is held on a chip, and binding of the other changes the refractive index at the surface.)
Target sequence in this assay (P40933 49-162 limits assumed, one chain of several): as the sequence (P40933 49-162 limits assumed, chain 1 of 2, one chain of several) above
For assay [5] the target is unchanged. The assay can be described thus: SPR. The source holds these as a separate data set.
Target sequence in this assay (P40933 49-162 limits assumed, one chain of several): as the sequence (P40933 49-162 limits assumed, chain 1 of 2, one chain of several) above
For assay [6] the target is unchanged. The assay can be described thus: SPR. The source holds these as a separate data set.
Target sequence in this assay (P40933 49-162 limits assumed, one chain of several): as the sequence (P40933 49-162 limits assumed, chain 1 of 2, one chain of several) above
Assay [7] shares this target. As to the kind of experiment: SPR. This is another data set of the same source.
Target sequence in this assay (P40933 49-162 limits assumed, one chain of several): as the sequence (P40933 49-162 limits assumed, chain 1 of 2, one chain of several) above
Assay [8] has the same target. As to the kind of experiment: SPR. The source holds these as a separate data set.
Assay [9] has the same target. The assay can be described thus: SPR. This is another data set of the same source.
Assay [10] has the same target. The assay can be described thus: SPR. The source holds these as a separate data set.
The target in a further assay is T2, IL-7 (UniProt P13232 26-177).
T2 sequence (looked up): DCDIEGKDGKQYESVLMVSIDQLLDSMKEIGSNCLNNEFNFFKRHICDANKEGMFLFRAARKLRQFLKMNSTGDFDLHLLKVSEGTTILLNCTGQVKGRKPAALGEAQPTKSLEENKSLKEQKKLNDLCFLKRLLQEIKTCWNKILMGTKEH
The assay can be described thus: SPR, antibody captured on Protein A chip.

The target of assay [11] is T3, uncomplexed IL-15 Receptor α (human).
T3 construct: also called IL-15Rα; IL15Rα
T3 chain: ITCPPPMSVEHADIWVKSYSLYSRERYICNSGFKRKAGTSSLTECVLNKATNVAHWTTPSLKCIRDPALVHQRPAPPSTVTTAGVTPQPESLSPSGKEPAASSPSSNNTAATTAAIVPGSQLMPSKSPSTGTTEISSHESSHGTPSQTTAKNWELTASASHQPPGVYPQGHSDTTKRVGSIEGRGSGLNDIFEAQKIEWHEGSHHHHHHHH
As to the kind of experiment: SPR, antibody captured on Protein A chip.

The target of the next assay is IL-9 (UniProt P15248 19-144). The assay can be described thus: SPR, antibody captured on Protein A chip.
IL-9, sequence (P15248 19-144 limits assumed): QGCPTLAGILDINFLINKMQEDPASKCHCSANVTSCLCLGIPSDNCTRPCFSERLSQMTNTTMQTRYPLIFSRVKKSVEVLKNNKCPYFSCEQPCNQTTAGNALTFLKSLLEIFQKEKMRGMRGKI
The target of a further assay is T4, IL-4 (UniProt P05112 25-153).
T4 sequence (looked up): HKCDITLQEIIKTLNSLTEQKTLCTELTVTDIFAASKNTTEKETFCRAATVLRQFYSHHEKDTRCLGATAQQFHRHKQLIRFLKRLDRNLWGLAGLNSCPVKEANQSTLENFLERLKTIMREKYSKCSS
The assay can be described thus: SPR, antibody captured on Protein A chip.

The target in the next assay is IL-2 (UniProt P60568 21-153). The assay can be described thus: SPR, antibody captured on Protein A chip.
IL-2, sequence (P60568 21-153 limits assumed): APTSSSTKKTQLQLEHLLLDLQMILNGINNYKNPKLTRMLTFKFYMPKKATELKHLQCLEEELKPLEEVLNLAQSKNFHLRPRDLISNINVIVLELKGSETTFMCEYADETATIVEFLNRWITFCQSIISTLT
The next assay deals with IL-21 (UniProt Q9HBE4 30-162, limits assumed). As to the kind of experiment: SPR, antibody captured on Protein A chip.
IL-21, sequence (Q9HBE4 30-162 limits assumed): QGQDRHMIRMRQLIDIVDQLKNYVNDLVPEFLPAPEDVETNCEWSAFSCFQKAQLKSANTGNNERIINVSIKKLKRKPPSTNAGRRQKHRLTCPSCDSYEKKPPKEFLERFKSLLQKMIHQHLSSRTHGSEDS
Assay [12] has as its target T1, human IL-15 complexed with the IL-15 …. As to the kind of experiment: cell-based or functional assay. This is another data set of the same source.
Assay [13] has the same target. The assay can be described thus: SPR. This is another data set of the same source.

Changes are numbered by the printed parent chain. Where “and” joins values, the source holds several entries; their conditions need not be identical. Equal values may be shown once. Read-outs that look alike come from different tables or passages of the source.

B1: Antibody 11 (antibody, V domains shown)
VH: QVQLQESGPGLVKPSGTLSLTCAVSGGSISSSNWWSWVRQPPGKGLEWIGEIYHYGYTNYNPSLKSRVTISVDKSKNQFSLKLISVTAADTAVYYCAREGIGWPSFDYWGQGTLVTVSS
VL: SSELTQDPAASVALGQTVRITCQGDTLRNYYASWYQQKPGQAPILVIYGKNNRPSGIPDRFSGSSSGNTASLTITGAQAEDEADYYCNSRDSSGKNLVFGGGTKLTVLG
On to B1, for which the “IC 50 (NK-92) in pM” value in assay [1] came to 6.3 pM. Further, in [2], the “NK-92 cell proliferation assay, potency (IC50)” value worked out at 7.4 pM. The “fold improvement of IC50 in the NK-92 cell proliferation assay compared to Antibody 4” value in [3] was no less than 10 fold.

B2: VL_K051A (antibody, V domains shown)
VH: B1 VH with Y55S, Y57N
VL: SSELTQDPAASVALGQTVRITCQGDTLRNYYASWYQQKPGQAPILVIYGANNRPSGIPDRFSGSSSGNTASLTITGAQAEDEADYYCNSRDSSGKNLVFGGGTKLTVL
notes: Antibody 4 with one substitution; also called ANTIBODY 30
Consider B2, for which the Kd in assay [4] was determined as 942 pM.

B3: Antibody 78 (antibody, V domains shown)
VH: B1 VH
VL: B2 VL with N29S, A50K, D91E
Regarding B3, the “IC 50 (NK-92) in pM” value in assay [1] turned out to be 168 pM.

B4: Antibody 80 (antibody, V domains shown)
VH: B1 VH
VL: B2 VL with N29S, A50K, S92E
Take B4: in assay [1], the “IC 50 (NK-92) in pM” value was 22.8 pM.

B5: VH_N058Q (antibody, V domains shown)
VH: B1 VH with Y55S, Y57N, N59Q
VL: B2 VL with A50K
In [5], B5 came in with a Kd of 765 pM.

B6: Antibody 81 (antibody, V domains shown)
VH: B1 VH
VL: B2 VL with N29S, A50K, S92F
Take B6: the “IC 50 (NK-92) in pM” value in assay [1] was 17.3 pM.

B7: Antibody 79 (antibody, V domains shown)
VH: B1 VH
VL: B2 VL with N29S, A50K, S92L
For the molecule B7, the “IC 50 (NK-92) in pM” value in assay [1] is 12.4 pM.

B8: VL_R054Q (antibody, V domains shown)
VH: B1 VH with Y55S, Y57N
VL: B2 VL with A50K, R53Q
notes: Antibody 4 with one substitution; also called ANTIBODY 34
In assay [6], B8 came in with a Kd of 892 pM.

B9: VL_R054Y (antibody, V domains shown)
VH: B1 VH with Y55S, Y57N
VL: B2 VL with A50K, R53Y
notes: Antibody 4 with one substitution; also called ANTIBODY 35
In assay [6], B9 displayed a Kd of 784 pM.

B10: VL_G050S (antibody, V domains shown)
VH: B1 VH with Y55S, Y57N
VL: B2 VL with G49S, A50K
notes: Antibody 4 with one substitution; also called ANTIBODY 29
B10: in [7], binding was put at a Kd of 1580 pM.

B11: VL_D092S (antibody, V domains shown)
VH: B1 VH with Y55S, Y57N
VL: B2 VL with A50K, D91S
notes: Antibody 4 with one substitution; also called ANTIBODY 16
As to B11, the affinity in assay [8], expressed as Kd, was 2150 pM.

B12: VL_K051H (antibody, V domains shown)
VH: B1 VH with Y55S, Y57N
VL: B2 VL with A50H
notes: Antibody 4 with one substitution; also called ANTIBODY 31
Consider B12, for which, in [9], the Kd was determined as 730 pM.

B13: VL_R054L (antibody, V domains shown)
VH: B1 VH with Y55S, Y57N
VL: B2 VL with A50K, R53L
notes: Antibody 4 with one substitution; also called ANTIBODY 33
As for B13, the Kd in assay [6] came out at 845 pM.

B14: VL_N030S (antibody, V domains shown)
VH: B1 VH with Y55S, Y57N
VL: B2 VL with N29S, A50K
notes: Antibody 4 with one substitution; also called ANTIBODY 51
In the case of B14, the Kd in assay [10] came out at 2410 pM.

B15: VL_K051L (antibody, V domains shown)
VH: B1 VH with Y55S, Y57N
VL: B2 VL with A50L
notes: Antibody 4 with one substitution; also called ANTIBODY 32
Regarding B15, in [4], the Kd is 865 pM.

B16: VH_T057D (antibody, V domains shown)
VH: B1 VH with Y55S, Y57N, T58D
VL: B2 VL with A50K
notes: Antibody 4 with one substitution; also called ANTIBODY 25
In turn, B16 had a Kd in assay [5] of 640 pM.

B17: Antibody 70b (antibody, human IgG1, lambda)
heavy: QVQLQESGPGLVKPSGTLSLTCAVSGGSISSSNWWSWVRQPPGKGLEWIGEIYHYGYTNYNPSLKSRVTISVDKSKNQFSLKLSSVTAADTAVYYCAREGIGWPSFDYWGQGTLVTVSSASTKGPSVFPLAPSSKSTSGGTAALGCLVKDYFPEPVTVSWNSGALTSGVHTFPAVLQSSGLYSLSSVVTVPSSSLGTQTYICNVNHKPSNTKVDKKVEPKSCDKTHTCPPCPAPELLGGPSVFLFPPKPKDTLYITREPEVTCVVVDVSHEDPEVKFNWYVDGVEVHNAKTKPREEQYNSTYRVVSVLTVLHQDWLNGKEYKCKVSNKALPAPIEKTISKAKGQPREPQVYTLPPSRDELTKNQVSLTCLVKGFYPSDIAVEWESNGQPENNYKTTPPVLDSDGSFFLYSKLTVDKSRWQQGNVFSCSVMHEALHNHYTQKSLSLSPG
light: SSELTQDPAASVALGQTVRITCQGDTLRSYYASWYQQKPGQAPILVIYGKNNRPSGIPDRFSGSSSGNTASLTITGAQAEDEADYYCNSRDLSGKNLVFGGGTKLTVLGQPKAAPSVTLFPPSSEELQANKATLVCLISDFYPGAVTVAWKADSSPVKAGVETTTPSKQSNNKYAASSYLSLTPEQWKSHRSYSCQVTHEGSTVEKTVAPTECS
Regarding B17, the binding result (with IL-7; in assay [11]; with IL-9; with IL-4; with IL-2; in the assay with IL-21) was “no binding (tested: 10 µg/mL)” throughout. For the same molecule, the “Max IC50 (pM), NK-92 proliferation assay” value in assay [12] amounted to 16.6 pM. Moreover, in [12], the “Mean IC50 (pM), NK-92 proliferation assay” value is 13.3 pM. Further, in assay [12], the “Min IC50 (pM), NK-92 proliferation assay” value was determined as 10.6 pM. The Kd in assay [13] was 154 pM and 157 pM. For the same molecule, the koff in assay [13] is 3.92e-05 s⁻¹ and 3.89e-05 s⁻¹. Also, the kon in [13] is 249000 M⁻¹ s⁻¹ and 254000 M⁻¹ s⁻¹.

B18: Antibody 70e (antibody, human IgG4 S228P, lambda)
heavy: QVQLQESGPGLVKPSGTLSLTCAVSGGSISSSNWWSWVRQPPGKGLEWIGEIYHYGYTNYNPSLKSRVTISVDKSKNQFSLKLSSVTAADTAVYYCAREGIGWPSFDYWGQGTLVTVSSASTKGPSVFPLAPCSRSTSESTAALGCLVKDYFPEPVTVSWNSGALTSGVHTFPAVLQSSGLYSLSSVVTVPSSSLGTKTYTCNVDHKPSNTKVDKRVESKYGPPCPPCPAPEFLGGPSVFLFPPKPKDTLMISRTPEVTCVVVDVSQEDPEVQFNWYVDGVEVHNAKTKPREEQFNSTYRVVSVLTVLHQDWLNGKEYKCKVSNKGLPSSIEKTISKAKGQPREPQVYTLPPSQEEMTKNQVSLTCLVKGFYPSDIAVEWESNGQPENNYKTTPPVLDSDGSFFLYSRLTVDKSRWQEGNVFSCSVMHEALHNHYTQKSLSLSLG
light: B17 light
With B18, the binding result (with IL-7; in [11]; with IL-9; with IL-4; in the assay with IL-2; in the assay with IL-21) was “no binding (tested: 10 µg/mL)” each time. In addition, the “Max IC50 (pM), NK-92 proliferation assay” value in [12] stood at 20.9 pM. The “Mean IC50 (pM), NK-92 proliferation assay” value in assay [12] was determined as 15.7 pM. Further, the “Min IC50 (pM), NK-92 proliferation assay” value in assay [12] was 11.7 pM. In addition, the Kd in [13] is 174 pM and 193 pM. The koff in [13] was 4.31e-05 s⁻¹ and 4.58e-05 s⁻¹. Besides, in [13], the association rate constant (kon) was 237000 M⁻¹ s⁻¹ and 247000 M⁻¹ s⁻¹.
